Target: the molecule itself
Assay: cryo-EM structure

B1: SPATA5 wild-type, C-terminal 3xFLAG (enzyme, human, UniProt Q8NB90 1-893, looked up)
chain: MSSKKNRKRLNQSAENGSSLPSAASSCAEARAPSAGSDFAATSGTLTVTNLLEKVDDKIPKTFQNSLIHLGLNTMKSANICIGRPVLLTSLNGKQEVYTAWPMAGFPGGKVGLSEMAQKNVGVRPGDAIQVQPLVGAVLQAEEMDVALSDKDMEINEEELTGCILRKLDGKIVLPGNFLYCTFYGRPYKLQVLRVKGADGMILGGPQSDSDTDAQRMAFEQSSMETSSLELSLQLSQLDLEDTQIPTSRSTPYKPIDDRITNKASDVLLDVTQSPGDGSGLMLEEVTGLKCNFESAREGNEQLTEEERLLKFSIGAKCNTDTFYFISSTTRVNFTEIDKNSKEQDNQFKVTYDMIGGLSSQLKAIREIIELPLKQPELFKSYGIPAPRGVLLYGPPGTGKTMIARAVANEVGAYVSVINGPEIISKFYGETEAKLRQIFAEATLRHPSIIFIDELDALCPKREGAQNEVEKRVVASLLTLMDGIGSEVSEGQVLVLGATNRPHALDAALRRPGRFDKEIEIGVPNAQDRLDILQKLLRRVPHLLTEAELLQLANSAHGYVGADLKVLCNEAGLCALRRILKKQPNLPDVKVAGLVKITLKDFLQAMNDIRPSAMREIAIDVPNVSWSDIGGLESIKLKLEQAVEWPLKHPESFIRMGIQPPKGVLLYGPPGCSKTMIAKALANESGLNFLAIKGPELMNKYVGESERAVRETFRKARAVAPSIIFFDELDALAVERGSSLGAGNVADRVLAQLLTEMDGIEQLKDVTILAATNRPDRIDKALMRPGRIDRIIYVPLPDAATRREIFKLQFHSMPVSNEVDLDELILQTDAYSGAEIVAVCREAALLALEEDIQANLIMKRHFTQALSTVTPRIPESLRRFYEDYQEKSGLHTL
Does B1 bind?
Result: binds

Source: article doi:10.1101/2025.11.07.687187 (bioRxiv, 2025)
